Substrate: CC(=O)N1c2ccc(O)cc2Oc2cc(O)ccc21
Assay: purified protein, by the assay type
[1] = other: Lineweaver-Burk curves in the absence of inhibitor
[2] = other: initial velocities, plate reader, MPO 23 nM, H2O2 22 μM, error 2 x SD

B1: Myeloperoxidase (MPO) (Homo sapiens) (protein)
chain 1: not shown
chain 2: VNCETSCVQQPPCFPLKIPPNDPRIKNQADCIPFFRSCPACPGSNITIRNQINALTSFVDASMVYGSEEPLARNLRNMSNQLGLLAVNQRFQDNGRALLPFDNLHDDPCLLTNRSARIPCFLAGDTRSSEMPELTSMHTLLLREHNRLATELKSLNPRWDGERLYQEARKIVGAMVQIITYRDYLPLVLGPTAMRKYLPTYRSYNDSVDPRIANVFTNAFRYGHTLIQPFMFRLDNRYQPMEPNPRVPLSRVFFASWRVVLEGGIDPILRGLMATPAKLNRQNQIAVDEIRERLFEQVMRIGLDLPALNMQRSRDHGLPGYNAWRRFCGLPQPETVGQLGTVLRNLKLARKLMEQYGTPNNIDIWMGGVSEPLKRKGRVGPLLACIIGTQFRKLRDGDRFWWENEGVFSMQQRQALAQISLPRIICDNTGITTVSKNNIFMSNSYPRDFVNCSTLPALNLASWREAS
- Km [1]: 28.8 µM
- kcat [1]: 207 s⁻¹
- Km [2]: 31 ± 4 µM
- kcat [2]: 186 ± 6 s⁻¹
